US20250361274A1, “PEPTIDE AND PEPTIDE-CONTAINING AGENT” (PEPTIDREAM INC., priority 2022, published 2025)
Square brackets hold non-standard residues; d marks the D form. Ends that are not written are not given here. Ala(2-NH2-4-pyridyl) = Nc1cc(C[C@H](N)C(=O)O)ccn1; 3Pal(6-Ph) = N[C@@H](Cc1ccc(-c2ccccc2)nc1)C(=O)O; Phe(4-COOH) = N[C@@H](Cc1ccc(C(=O)O)cc1)C(=O)O; Bip = N[C@@H](Cc1ccc(-c2ccccc2)cc1)C(=O)O; Phe(3-Cl) = N[C@@H](Cc1cccc(Cl)c1)C(=O)O; Phe(4-Cl) = N[C@@H](Cc1ccc(Cl)cc1)C(=O)O; Phe(3-Me) = Cc1cccc(C[C@H](N)C(=O)O)c1; cisHyp = O=C(O)[C@@H]1C[C@H](O)CN1; Hyp = O=C(O)[C@@H]1C[C@@H](O)CN1; NMeF = CN[C@@H](Cc1ccccc1)C(=O)O; Aad = N[C@@H](CCCC(=O)O)C(=O)O; Cha = N[C@@H](CC1CCCCC1)C(=O)O; Abu = CC[C@H](N)C(=O)O

Assays:
BMP4 = target: T1, BMP4 (Homo sapiens, UniProt P12644); experiment: BMP4 signal transduction inhibitory activity: SMAD1 phosphorylation by BMP4 stimulus, AlphaLISA SureFire, A549 cells; assay type: cell-based
T1 sequence (P12644 293-408): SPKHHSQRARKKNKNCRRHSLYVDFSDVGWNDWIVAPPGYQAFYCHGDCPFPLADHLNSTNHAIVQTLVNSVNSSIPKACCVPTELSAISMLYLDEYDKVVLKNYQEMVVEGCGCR

BMP7 = target: T2, BMP7 (Homo sapiens, UniProt P18075); experiment: BMP7 signal transduction inhibitory activity: SMAD1 phosphorylation by BMP7 stimulus, A549 cells; assay type: cell-based
T2 sequence (P18075 293-431): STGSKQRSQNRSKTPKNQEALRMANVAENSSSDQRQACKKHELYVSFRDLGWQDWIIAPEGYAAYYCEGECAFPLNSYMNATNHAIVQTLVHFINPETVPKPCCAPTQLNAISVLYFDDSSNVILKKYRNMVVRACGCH
In short: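 Inhibition is read as reduced BMP7-driven SMAD1 phosphorylation in human A549 cells, with the BMP7 stimulus at 10 nM. Three-point peptide concentrations spanned 1–1,000 nM depending on the peptide series. Some peptides received eight-point, 1/3-ratio titrations from 100 nM or 1,000 nM, alongside a Noggin control.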

[1] = SMAD1 phosphorylation, BMP4 0.2 nM, peptide conc. in assay 0.2, 2, 20 nM
[2] = SMAD1 phosphorylation, BMP7 10 nM, peptide conc. in assay 1, 10, 100 nM
[3] = BMP4 0.2 nM stimulus, peptide conc. in assay 2, 20, 200 nM
[4] = BMP7 10 nM stimulus, peptide conc. in assay 10, 30, 90 nM

Substance | aLISA BMP4 (0.2 nM) % inh (BMP4; [1]) | aLISA BMP7 (10 nM) % inh (BMP7; [2]) | other results
354 (FG[NMeF]G[Bip]GDD[Cha]A[NMeF]LNCG-NH2; not fully specified (N-terminus, bridges)) [compound 354] | ND (the inhibitory activity was less than 30% at the maximum concentration evaluated) | D (showed less than 30% of inhibitory activity in 10 nM-addition zone and showed 30% or more of inhibitory activity in 100 nM-addition zone) | –
355 (FG[NMeF]G[Bip]GDD[Cha]A[NMeF]L[Hyp]CG-NH2; not fully specified (N-terminus, bridges)) [compound 355] | A (showed less than 30% of inhibitory activity in 2 nM-peptide-addition zone and showed 30% or more of inhibitory activity in 20 nM-addition zone) | D (showed less than 30% of inhibitory activity in 10 nM-addition zone and showed 30% or more of inhibitory activity in 100 nM-addition zone) | –
356 (FG[NMeF]G[Bip]GDD[Cha]A[NMeF]L[cisHyp]CG-NH2; not fully specified (N-terminus, bridges)) [compound 356] | A (showed less than 30% of inhibitory activity in 2 nM-peptide-addition zone and showed 30% or more of inhibitory activity in 20 nM-addition zone) | C (showed less than 30% of inhibitory activity in a zone to which the peptide was added in an amount of 1 nM and showed 30% or more of inhibitory activity in 10 nM-addition zone) | –
357 (FG[NMeF]G[Bip]GDD[Cha]A[NMeF]L[Phe(4-COOH)]CG-NH2; not fully specified (N-terminus, bridges)) [compound 357] | ND (the inhibitory activity was less than 30% at the maximum concentration evaluated) | D (showed less than 30% of inhibitory activity in 10 nM-addition zone and showed 30% or more of inhibitory activity in 100 nM-addition zone) | –
358 (FG[NMeF]G[Bip]GDE[Cha]A[NMeF]LHCG-NH2; not fully specified (N-terminus, bridges)) [compound 358] | ND (the inhibitory activity was less than 30% at the maximum concentration evaluated) | D (showed less than 30% of inhibitory activity in 10 nM-addition zone and showed 30% or more of inhibitory activity in 100 nM-addition zone) | –
359 (FG[NMeF]G[Bip]GDE[Cha]A[NMeF]L[Abu]CG-NH2; not fully specified (N-terminus, bridges)) [compound 359] | ND (the inhibitory activity was less than 30% at the maximum concentration evaluated) | D (showed less than 30% of inhibitory activity in 10 nM-addition zone and showed 30% or more of inhibitory activity in 100 nM-addition zone) | –
360 (FG[NMeF]G[Bip]GDE[Cha]A[NMeF]L[Ala(2-NH2-4-pyridyl)]CG-NH2; not fully specified (N-terminus, bridges)) [compound 360] | ND (the inhibitory activity was less than 30% at the maximum concentration evaluated) | D (showed less than 30% of inhibitory activity in 10 nM-addition zone and showed 30% or more of inhibitory activity in 100 nM-addition zone) | –
361 (FG[NMeF]G[Bip]GDE[Cha]A[NMeF]L[Phe(4-COOH)]CG-NH2; not fully specified (N-terminus, bridges)) [compound 361] | ND (the inhibitory activity was less than 30% at the maximum concentration evaluated) | D (showed less than 30% of inhibitory activity in 10 nM-addition zone and showed 30% or more of inhibitory activity in 100 nM-addition zone) | –
362 (FG[NMeF]GFGDE[Cha]A[NMeF]LHCG-NH2; not fully specified (N-terminus, bridges)) [compound 362] | ND (the inhibitory activity was less than 30% at the maximum concentration evaluated) | D (showed less than 30% of inhibitory activity in 10 nM-addition zone and showed 30% or more of inhibitory activity in 100 nM-addition zone) | –
363 (FG[NMeF]G[3Pal(6-Ph)]GDE[Cha]A[NMeF]LHCG-NH2; not fully specified (N-terminus, bridges)) [compound 363] | ND (the inhibitory activity was less than 30% at the maximum concentration evaluated) | D (showed less than 30% of inhibitory activity in 10 nM-addition zone and showed 30% or more of inhibitory activity in 100 nM-addition zone) | –
364 (FG[NMeF]G[Bip]GDE[Cha]Q[NMeF]LHCG-NH2; not fully specified (N-terminus, bridges)) [compound 364] | ND (the inhibitory activity was less than 30% at the maximum concentration evaluated) | D (showed less than 30% of inhibitory activity in 10 nM-addition zone and showed 30% or more of inhibitory activity in 100 nM-addition zone) | –
365 (FG[NMeF]G[Bip]GDE[Cha][Abu][NMeF]LHCG-NH2; not fully specified (N-terminus, bridges)) [compound 365] | ND (the inhibitory activity was less than 30% at the maximum concentration evaluated) | D (showed less than 30% of inhibitory activity in 10 nM-addition zone and showed 30% or more of inhibitory activity in 100 nM-addition zone) | –
366 (FG[NMeF]G[Bip]GDE[Cha][Aad][NMeF]LHCG-NH2; not fully specified (N-terminus, bridges)) [compound 366] | ND (the inhibitory activity was less than 30% at the maximum concentration evaluated) | D (showed less than 30% of inhibitory activity in 10 nM-addition zone and showed 30% or more of inhibitory activity in 100 nM-addition zone) | –
367 (FG[NMeF]GFGDE[Cha]Q[NMeF]LHCG-NH2; not fully specified (N-terminus, bridges)) [compound 367] | ND (the inhibitory activity was less than 30% at the maximum concentration evaluated) | D (showed less than 30% of inhibitory activity in 10 nM-addition zone and showed 30% or more of inhibitory activity in 100 nM-addition zone) | –
368 (FG[NMeF]G[Bip]GDE[Cha]Q[NMeF]L[Phe(4-COOH)]CG-NH2; not fully specified (N-terminus, bridges)) [compound 368] | ND (the inhibitory activity was less than 30% at the maximum concentration evaluated) | C (showed less than 30% of inhibitory activity in a zone to which the peptide was added in an amount of 1 nM and showed 30% or more of inhibitory activity in 10 nM-addition zone) | –
369 (FG[NMeF]GFGDE[Cha]Q[NMeF]L[Phe(4-COOH)]CG-NH2; not fully specified (N-terminus, bridges)) [compound 369] | ND (the inhibitory activity was less than 30% at the maximum concentration evaluated) | D (showed less than 30% of inhibitory activity in 10 nM-addition zone and showed 30% or more of inhibitory activity in 100 nM-addition zone) | –
370 (FG[NMeF]G[3Pal(6-Ph)]GDE[Cha]Q[NMeF]L[Phe(4-COOH)]CG-NH2; not fully specified (N-terminus, bridges)) [compound 370] | ND (the inhibitory activity was less than 30% at the maximum concentration evaluated) | D (showed less than 30% of inhibitory activity in 10 nM-addition zone and showed 30% or more of inhibitory activity in 100 nM-addition zone) | –
371 (FGFGFGDDAAFLHCG; not fully specified; MOD_RES 3 F represents Methyl-L-phenylalanine(MeF); MOD_RES 5 F represents (S)-3-(1,1'-Biphenyl-4-yl)-2-aminopropanoic acid(Bph); MOD_RES 9 A represents (S)-2-Amino-3-cyclohexylpropanoic acid(Cha); MOD_RES 11 F represents Methyl-L-phenylalanine(MeF)) [compound 371] | – | – | aLISA BMP4 (0.2 nM) % inh (BMP4; SMAD1 phosphorylation, BMP4 0.2 nM, peptide conc. in assay 2, 20, 200 nM): A (showed less than 30% of inhibitory activity in 2 nM-peptide-addition zone and showed 30% or more of inhibitory activity in 20 nM-addition zone); aLISA BMP7 (10 nM) % inh (BMP7; SMAD1 phosphorylation, BMP7 10 nM, peptide conc. in assay 10, 30, 90 nM): E (showed 30% or more of inhibitory activity in 10 nM-addition zone)
372 ([Phe(3-Cl)]G[NMeF]G[Bip]GDD[Cha]A[NMeF]LHCG-NH2; not fully specified (N-terminus, bridges); also: cyclic peptide, linkage not given here) [compound 372] | – | – | aLISA BMP4 (0.2 nM) % inh (BMP4; [3]): ND (the inhibitory activity was less than 30% at the maximum concentration evaluated); aLISA BMP7 (10 nM) % inh (BMP7; [4]): G (showed less than 30% of inhibitory activity in 30 nM-addition zone and showed 30% or more of inhibitory activity in 90 nM-addition zone)
373 ([Phe(4-Cl)]G[NMeF]G[Bip]GDD[Cha]A[NMeF]LHCG-NH2; not fully specified) [compound 373] | – | – | aLISA BMP4 (0.2 nM) % inh (BMP4; [3]): A (showed less than 30% of inhibitory activity in 2 nM-peptide-addition zone and showed 30% or more of inhibitory activity in 20 nM-addition zone); aLISA BMP7 (10 nM) % inh (BMP7; [4]): F (showed less than 30% of inhibitory activity in 10 nM-addition zone and showed 30% or more of inhibitory activity in 30 nM-addition zone)
374 ([Phe(3-Me)]G[NMeF]G[Bip]GDD[Cha]A[NMeF]LHCG-NH2; not fully specified) [compound 374] | – | – | aLISA BMP4 (0.2 nM) % inh (BMP4; [3]): ND (the inhibitory activity was less than 30% at the maximum concentration evaluated); aLISA BMP7 (10 nM) % inh (BMP7; [4]): G (showed less than 30% of inhibitory activity in 30 nM-addition zone and showed 30% or more of inhibitory activity in 90 nM-addition zone)
